Assay results from patent US20030232051A1.
One block for each substance: values may come before it.

Legend:
Experiment in all cases: cell-based or functional assay
[1] = target: CD16 (on human NK cells) (human) (UniProt P08637)
[2] = target: HA-2DL4 (RY-GT) mutant (human) (UniProt Q99706)
[3] = target: HA-2DL4 (epitope-tagged 2DL4) (human) (UniProt Q99706)
[4] = target: 2B4 (CD244) (on human NK cells) (human) (UniProt Q9BZW8)
2B4 (CD244) (on human NK cells) (human), sequence (Q9BZW8 22-370): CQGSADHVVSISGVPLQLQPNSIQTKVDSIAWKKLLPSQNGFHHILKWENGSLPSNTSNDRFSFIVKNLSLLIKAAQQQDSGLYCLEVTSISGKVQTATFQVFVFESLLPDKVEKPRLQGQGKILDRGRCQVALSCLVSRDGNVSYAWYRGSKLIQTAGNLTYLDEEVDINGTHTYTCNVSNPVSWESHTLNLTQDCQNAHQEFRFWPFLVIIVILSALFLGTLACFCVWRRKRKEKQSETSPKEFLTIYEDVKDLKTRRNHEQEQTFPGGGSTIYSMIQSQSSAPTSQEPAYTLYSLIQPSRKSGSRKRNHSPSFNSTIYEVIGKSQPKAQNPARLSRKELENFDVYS

CD16 (on human NK cells) (human), sequence (P08637 17-254): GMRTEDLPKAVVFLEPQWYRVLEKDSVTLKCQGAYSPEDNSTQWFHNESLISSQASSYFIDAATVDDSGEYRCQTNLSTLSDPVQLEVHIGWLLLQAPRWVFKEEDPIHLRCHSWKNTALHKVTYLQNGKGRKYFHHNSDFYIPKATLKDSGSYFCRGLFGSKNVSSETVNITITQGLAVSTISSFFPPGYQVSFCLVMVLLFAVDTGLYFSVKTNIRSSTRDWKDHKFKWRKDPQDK
HA-2DL4 (epitope-tagged 2DL4) (human), sequence (Q99706 24-377): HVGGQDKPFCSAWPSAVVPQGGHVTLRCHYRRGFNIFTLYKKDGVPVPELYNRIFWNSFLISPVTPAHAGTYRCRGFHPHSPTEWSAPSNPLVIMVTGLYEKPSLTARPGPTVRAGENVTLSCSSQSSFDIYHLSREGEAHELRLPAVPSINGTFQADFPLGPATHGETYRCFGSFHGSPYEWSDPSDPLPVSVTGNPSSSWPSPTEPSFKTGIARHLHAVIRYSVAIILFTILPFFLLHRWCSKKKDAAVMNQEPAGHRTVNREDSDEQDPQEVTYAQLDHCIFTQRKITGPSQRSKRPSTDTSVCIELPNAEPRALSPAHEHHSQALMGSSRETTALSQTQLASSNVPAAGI
HA-2DL4 (RY-GT) mutant (human), sequence (Q99706 24-377, change not shown): as the sequence (Q99706 24-377) above

increase in IFN-gamma release by IL-2-activated NK cells with P815 cells over that induced by control IgG (fold over control IgG) [1]: 20.1 | increase in IFN-gamma release by resting NK cells with P815 cells over control IgG (fold over control IgG) [1]: 4.2 | ratio of lysis of P815 cells by IL-2-activated NK cells over that obtained with control Ig (fold over control Ig) [1]: 4.8 | ratio of lysis of P815 cells by resting NK cells over that obtained with control Ig (fold over control Ig) [1]: 4.9
Substance: anti-CD16 mAb 3G8 (IgG1; Medarex) (antibody)

Substance: anti-HA mAb 16B12 (IgG1; Covance) (antibody)
fold activation of lysis of P815 cells by vaccinia-infected IL-2-activated NK cells (fold over control Ig) [2]: 0.56 | fold activation of lysis of P815 cells by vaccinia-infected IL-2-activated NK cells (fold over control Ig) [3]: 2.9

increase in IFN-gamma release by IL-2-activated NK cells with P815 cells over that induced by control IgG (fold over control IgG) [4]: 1.55 | increase in IFN-gamma release by resting NK cells with P815 cells over control IgG (fold over control IgG) [4]: 2.1 | ratio of lysis of P815 cells by IL-2-activated NK cells over that obtained with control Ig (fold over control Ig) [4]: 3.3 | ratio of lysis of P815 cells by resting NK cells over that obtained with control Ig (fold over control Ig) [4]: 3.1
Substance: anti-2B4 mAb C1.7 (IgG1; Beckman Coulter) (antibody)
